In assay [1] the target is SARS-CoV-2 papain-like protease (PLpro) wild type (SARS-CoV-2).
The target in assay [2] is SARS-CoV-2 PLpro TR (truncated form lacking the Ubl domain) (SARS-CoV-2).

Consider “human ISG15 (interferon-stimulated gene product 15) (from UniProt P05161 1-157) (natural protein)”, for which, in assay [1], the IC50 of free ISG15 for inhibition of ISG15-AMC cleavage amounted to 2.05 µM and the IC50 of free ISG15 for inhibition of Ub-AMC cleavage was 1.59 µM. Besides, in assay [2], the IC50 of free ISG15 for inhibition of ISG15-AMC cleavage turned out to be 2.05 µM and the IC50 of free ISG15 for inhibition of Ub-AMC cleavage was 1.06 µM.

Values taken from publication PMC12495856.
